We go through 6 substances from the supplement of paper PMC5998384.

Data set [1] relates to HeLa Kyoto. The data set can be described thus: solubility in G1/S (NP-40 vs SDS abundance) (log2 ratio); higher = more soluble. The following applies: cell cycle stage: G1/S.
In data set [2] the test system is HeLa Kyoto. Kind of data set: solubility change mitosis vs G1/S (difference of NP-40 vs SDS log2 ratios) (log2 ratio difference); higher = more soluble in mitosis.
Data set [3] has as its system HeLa Kyoto. Kind of data set: thermal stability score vs G1/S (z-score of summed log2 fold changes over temperatures); higher = more thermally stable than in G1/S.
Data set [4] deals with HeLa Kyoto. Kind of data set: melting temperature (median over replicates), in situ; higher = more thermally stable.
[5] abbreviates: cell cycle stage: early G1 (4.5 h after nocodazole release).
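Throughout, for melting temperature (median over replicates), in situ: HeLa Kyoto cells synchronized by double thymidine or nocodazole block, proteins quantified by TMT10plex mass spectrometry, three independent biological replicates.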
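Throughout, for solubility change mitosis vs G1/S (difference of NP-40 vs SDS log2 ratios): synchronized HeLa Kyoto cells (double thymidine block for G1/S, nocodazole release for mitosis), protein amounts in NP-40 versus SDS lysates quantified by mass spectrometry, three biological replicates.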
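Throughout, for solubility in G1/S (NP-40 vs SDS abundance): HeLa Kyoto cells arrested at G1/S by double thymidine block, proteins quantified by TMT10plex mass spectrometry in mild NP-40 versus SDS extracts, three biological replicates.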
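Throughout, for thermal stability score vs G1/S (z-score of summed log2 fold changes over temperatures): synchronized HeLa Kyoto cells, proteins quantified by TMT10plex mass spectrometry, three biological replicates, mitosis taken 0.5 h after nocodazole release, G1/S directly after double thymidine block.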

Sequence of MCTP2 (chain, as listed by the source): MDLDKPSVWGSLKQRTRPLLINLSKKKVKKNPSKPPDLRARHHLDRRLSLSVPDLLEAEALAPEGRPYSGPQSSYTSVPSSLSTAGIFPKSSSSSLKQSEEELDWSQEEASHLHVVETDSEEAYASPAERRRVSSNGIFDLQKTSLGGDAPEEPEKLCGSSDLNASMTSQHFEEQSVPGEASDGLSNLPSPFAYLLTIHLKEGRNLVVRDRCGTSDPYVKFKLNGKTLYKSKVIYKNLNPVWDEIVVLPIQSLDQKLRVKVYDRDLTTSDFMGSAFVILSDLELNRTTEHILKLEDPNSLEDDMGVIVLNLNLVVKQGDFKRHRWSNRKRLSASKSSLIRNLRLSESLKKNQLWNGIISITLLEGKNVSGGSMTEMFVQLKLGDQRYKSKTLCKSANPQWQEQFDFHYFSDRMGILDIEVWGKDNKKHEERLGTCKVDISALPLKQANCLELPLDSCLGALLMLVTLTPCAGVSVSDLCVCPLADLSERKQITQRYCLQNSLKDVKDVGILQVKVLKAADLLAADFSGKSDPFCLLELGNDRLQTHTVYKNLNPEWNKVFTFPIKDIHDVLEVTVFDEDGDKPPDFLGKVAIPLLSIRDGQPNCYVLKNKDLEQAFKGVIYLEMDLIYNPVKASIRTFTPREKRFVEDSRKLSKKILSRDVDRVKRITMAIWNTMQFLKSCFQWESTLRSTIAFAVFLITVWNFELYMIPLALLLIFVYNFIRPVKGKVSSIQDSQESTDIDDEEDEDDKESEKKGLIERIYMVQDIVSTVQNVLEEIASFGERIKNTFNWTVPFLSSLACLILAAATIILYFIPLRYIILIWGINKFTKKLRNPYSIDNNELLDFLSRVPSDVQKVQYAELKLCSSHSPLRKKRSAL

On to “MASLDDPGEVREGFLCPLCLKDLQSFYQLHSHYEEEHSGEDRDVKGQIKSLVQKAKKAKDRLLKREGDDRAESGTQGYESFSYGGVDPYMWEPQELGAVRSHLSDFKKHRAARIDHYVVEVNKLIIRLEKLTAFDRTNTESAKIRAIEKSVVPWVNDQDVPFCPDCGNKFSIRNRRHHCRLCGSIMCKKCMELISLPLANKLTSASKESLSTHTSPSQSPNSVHGSRRGSISSMSSVSSVLDEKDDDRIRCCTHCKDTLLKREQQIDEKEHTPDIVKLYEKLRLCMEKVDQKAPEYIRMAASLNAGETTYSLEHASDLRVEVQKVYELIDALSKKILTLGLNQDPPPHPSNLRLQRMIRYSATLFVQEKLLGLMSLPTKEQFEELKKKRKEEMERKRAVERQAALESQRRLEERQSGLASRAANGEVASLRRGPAPLRKAEGWLPLSGGQGQSEDSDPLLQQIHNITSFIRQAKAAGRMDEVRTLQENLRQLQDEYDQQQTEKAIELSRRQAEEEDLQREQLQMLRERELEREREQFRVASLHTRTRSLDFREIGPFQLEPSREPRTHLAYALDLGSSPVPSSTAPKTPSLSSTQPTRVWSGPPAVGQERLPQSSMPQQHEGPSLNPFDEEDLSSPMEEATTGPPAAGVSLDPSARILKEYNPFEEEDEEEEAVAGNPFIQPDSPAPNPFSEEDEHPQQRLSSPLVPGNPFEEPTCINPFEMDSDSGPEAEEPIEEELLLQQIDNIKAYIFDAKQCGRLDEVEVLTENLRELKHTLAKQKGGTD [RBSN]”, for which the “solubility in G1/S (log2)” value in the data set on HeLa Kyoto [1] is 0.33. In the data set with HeLa Kyoto [2], the “solubility change mitosis (log2)” value was -0.00797. The figures for the thermal stability score with HeLa Kyoto [3] (setting [5]) and with HeLa Kyoto [3] (cell cycle stage: mitosis) were 0.55 and 1.28, respectively. For the same substance, the melting temperature in the data set on HeLa Kyoto [4] (cell cycle stage: G1/S) was found to be 50.7 °C; in the data set with HeLa Kyoto [4] (cell cycle stage: mitosis), 50.4 °C.
Consider “MATSNLLKNKGSLQFEDKWDFMRPIVLKLLRQESVTKQQWFDLFSDVHAVCLWDDKGPAKIHQALKEDILEFIKQAQARVLSHQDDTALLKAYIVEWRKFFTQCDILPKPFCQLEITLMGKQGSNKKSNVEDSIVRKLMLDTWNESIFSNIKNRLQDSAMKLVHAERLGEAFDSQLVIGVRESYVNLCSNPEDKLQIYRDNFEKAYLDSTERFYRTQAPSYLQQNGVQNYMKYADAKLKEEEKRALRYLETRRECNSVEALMECCVNALVTSFKETILAECQGMIKRNETEKLHLMFSLMDKVPNGIEPMLKDLEEHIISAGLADMVAAAETITTDSEKYVEQLLTLFNRFSKLVKEAFQDDPRFLTARDKAYKAVVNDATIFKLELPLKQKGVGLKTQPESKCPELLANYCDMLLRKTPLSKKLTSEEIEAKLKEVLLVLKYVQNKDVFMRYHKAHLTRRLILDISADSEIEENMVEWLREVGMPADYVNKLARMFQDIKVSEDLNQAFKEMHKNNKLALPADSVNIKILNAGAWSRSSEKVFVSLPTELEDLIPEVEEFYKKNHSGRKLHWHHLMSNGIITFKNEVGQYDLEVTTFQLAVLFAWNQRPREKISFENLKLATELPDAELRRTLWSLVAFPKLKRQVLLYEPQVNSPKDFTEGTLFSVNQEFSLIKNAKVQKRGKINLIGRLQLTTERMREEENEGIVQLRILRTQEAIIQIMKMRKKISNAQLQTELVEILKNMFLPQKKMIKEQIEWLIEHKYIRRDESDINTFIYMA [CUL5]”, for which the “solubility in G1/S (log2)” value in the data set with HeLa Kyoto [1] was -0.152. In addition, the “solubility change mitosis (log2)” value with HeLa Kyoto [2] was -0.233. Moreover, the figures for the thermal stability score with HeLa Kyoto [3] (setting [5]) and with HeLa Kyoto [3] (cell cycle stage: mitosis) were -0.282 and -0.5, respectively. For the same substance, the melting temperature in the data set on HeLa Kyoto [4] (cell cycle stage: G1/S) was found to be 55.6 °C; in the data set on HeLa Kyoto [4] (cell cycle stage: mitosis), 54 °C.
In the case of MCTP2, the “solubility in G1/S (log2)” value in the data set with HeLa Kyoto [1] was -0.274. Also, in the data set with HeLa Kyoto [2], the “solubility change mitosis (log2)” value is -0.136. Further, the thermal stability score in the data set on HeLa Kyoto [3] (setting [5]) is 0.55; in the data set on HeLa Kyoto [3] (cell cycle stage: mitosis) it was 0.479. Besides, the melting temperature with HeLa Kyoto [4] (cell cycle stage: G1/S) was 50.2 °C; in the data set on HeLa Kyoto [4] (cell cycle stage: mitosis), 50.1 °C.
For the substance “MFGTLLLYCFFLATVPALAETGGERQLSPEKSEIWGPGLKADVVLPARYFYIQAVDTSGNKFTSSPGEKVFQVKVSAPEEQFTRVGVQVLDRKDGSFIVRYRMYASYKNLKVEIKFQGQHVAKSPYILKGPVYHENCDCPLQDSAAWLREMNCPETIAQIQRDLAHFPAVDPEKIAVEIPKRFGQRQSLCHYTLKDNKVYIKTHGEHVGFRIFMDAILLSLTRKVKMPDVELFVNLGDWPLEKKKSNSNIHPIFSWCGSTDSKDIVMPTYDLTDSVLETMGRVSLDMMSVQANTGPPWESKNSTAVWRGRDSRKERLELVKLSRKHPELIDAAFTNFFFFKHDENLYGPIVKHISFFDFFKHKYQINIDGTVAAYRLPYLLVGDSVVLKQDSIYYEHFYNELQPWKHYIPVKSNLSDLLEKLKWAKDHDEEAKKIAKAGQEFARNNLMGDDIFCYYFKLFQEYANLQVSEPQIREGMKRVEPQTEDDLFPCTCHRKKTKDEL [KDELC1]”, the “solubility in G1/S (log2)” value in the data set with HeLa Kyoto [1] was found to be 0.0317. Besides, in the data set with HeLa Kyoto [2], the “solubility change mitosis (log2)” value was -0.102. The figures for the thermal stability score in the data set on HeLa Kyoto [3] (setting [5]) and with HeLa Kyoto [3] (cell cycle stage: mitosis) were 2.25 and 2.83, respectively. In addition, the melting temperature with HeLa Kyoto [4] (cell cycle stage: G1/S) was 53.5 °C; in the data set on HeLa Kyoto [4] (cell cycle stage: mitosis), 54 °C.
Take “MAAAAARWNHVWVGTETGILKGVNLQRKQAANFTAGGQPRREEAVSALCWGTGGETQMLVGCADRTVKHFSTEDGIFQGQRHCPGGEGMFRGLAQADGTLITCVDSGILRVWHDKDKDTSSDPLLELRVGPGVCRMRQDPAHPHVVATGGKENALKIWDLQGSEEPVFRAKNVRNDWLDLRVPIWDQDIQFLPGSQKLVTCTGYHQVRVYDPASPQRRPVLETTYGEYPLTAMTLTPGGNSVIVGNTHGQLAEIDLRQGRLLGCLKGLAGSVRGLQCHPSKPLLASCGLDRVLRIHRIQNPRGLEHKVYLKSQLNCLLLSGRDNWEDEPQEPQEPNKVPLEDTETDELWASLEAAAKRKLSGLEQPQGALQTRRRKKKRPGSTSP [WDR74]”: the “solubility in G1/S (log2)” value in the data set with HeLa Kyoto [1] was -0.848. In the data set on HeLa Kyoto [2], the “solubility change mitosis (log2)” value turned out to be 0.631. Also, the thermal stability score in the data set with HeLa Kyoto [3] (setting [5]) was -0.813; in the data set on HeLa Kyoto [3] (cell cycle stage: mitosis), -1.48. In the data set on HeLa Kyoto [4] (cell cycle stage: mitosis), the melting temperature turned out to be 52 °C.
Regarding “MVKLAAKCILAGDPAVGKTALAQIFRSDGAHFQKSYTLTTGMDLVVKTVPVPDTGDSVELFIFDSAGKELFSEMLDKLWESPNVLCLVYDVTNEESFNNCSKWLEKARSQAPGISLPGVLVGNKTDLAGRRAVDSAEARAWALGQGLECFETSVKEMENFEAPFHCLAKQFHQLYREKVEVFRALA [IFT27]”, the “solubility in G1/S (log2)” value in the data set on HeLa Kyoto [1] worked out at 0.371. For the same substance, the “solubility change mitosis (log2)” value in the data set on HeLa Kyoto [2] is -0.134. The thermal stability score was -0.15 with HeLa Kyoto [3] (setting [5]) and -0.857 in the data set on HeLa Kyoto [3] (cell cycle stage: mitosis). The melting temperature in the data set with HeLa Kyoto [4] (cell cycle stage: G1/S) was 52.3 °C; in the data set with HeLa Kyoto [4] (cell cycle stage: mitosis), 53.7 °C.
